From patent US12018066 (TRIAD NATIONAL SECURITY, dated 2024)

Assays:
[1] = biological target: T1, SARS-CoV spike protein receptor binding domain (RBD1) (SARS-CoV, UniProt P59594 306-527); assay: ELISA, crude human minibody
[2] = biological target: T2, SARS-CoV-2 spike protein receptor binding domain (RBD2) (SARS-CoV-2, UniProt P0DTC2 319-537); assay: SPR
[3] = biological target: T2, SARS-CoV-2 spike protein receptor …; assay: SPR, immobilized antibody, RBD injected, 1:1 fit
[4] = biological target: T1, SARS-CoV spike protein receptor binding …; assay: ELISA, crude rabbit minibody

Binder	binding result [1]	also measured
D11 human minibody (scFv-human Fc) (Fc fusion) scFv-Fc: SYELTQPPSVSVAPGQTARITCGGNNIGSKSVHWYQQKPGQAPVLVVYDDSDRPSGIPERFSGSNSGNTATLTISGTQAMDEADYYCQAWDSSTAYVFGSGTKLTVLSGGSTITSYNVYYTKLSSSGTQVQLEESGGGLVQPGGSLRLSCAASGFTFSNYAMSWVRQAPGKGLEWVSAISGSGGATFHADSVKGRFTISRDNSKNTLYLQMNSLRAEDTAVYYCARRVGYDSSGYYWSDAFDIWGQGTMVTVSS	no binding	–
D04 human minibody (scFv-human Fc) (Fc fusion) scFv-Fc: SYVLTQPPSVSVAPGKTARITCGGNNIGWKSVHWYQQKPGQAPVLVVYNDNDRPSGVPERFSGSNSGNTATLTISRVVAGDEADYYCQVWDSSSDHVLFGGGTKLTVLSGGSTITSYNVYYTKLSSSGTQVQLVQSGAEVKKPGSSVKVSCKASGGTFSSYAISWVRQAPGQGLEWMGGIIPIFGTANYAQKFQGRVTITADESTSTAYMELSSLRSEDTAVYYCARASGRWLQFWHYYGMDVWGQGTTVTVS	no binding	–
B04 human minibody (scFv-human Fc) (Fc fusion) scFv-Fc: SYVLTQPPSVSVAPGKTARITCGGNNIGIRSVHWYQQKPGQAPVLVIYYDSDRPSGIPERFSGSKSGNTATLTISRVEAGDEADYYCQVWDSSSDHPVFGGGTKLTVLSGGSTITSYNVYYTKLSSSGTQVQLVESGAEVKKPGASVKVSCKASGYTFTRYYMHWVRQAPGQGLEWMGIINPSGGTTSYAQKFQGRVTMTRDTSTSTVYMELSSLRSEDTAVYYCARSFGELTSFDYWGQGTLVTVSS	no binding	–
B04 minibody (scFv-Fc) (Fc fusion) SYVLTQPPSVSVAPGKTARITCGGNNIGIRSVHWYQQKPGQAPVLVIYYDSDRPSGIPERFSGSKSGNTATLTISRVEAGDEADYYCQVWDSSSDHPVFGGGTKLTVLSGGSTITSYNVYYTKLSSSGTQVQLVESGAEVKKPGASVKVSCKASGYTFTRYYMHWVRQAPGQGLEWMGIINPSGGTTSYAQKFQGRVTMTRDTSTSTVYMELSSLRSEDTAVYYCARSFGELTSFDYWGQGTLVTVSS	–	Kd [2]: 56.8 nM; Kd [3]: 56.8 nM
R04 minibody (scFv-Fc) (Fc fusion) EIVMTQSPSSLSASVGDRVTITCQASQDISNYLNWCQQKPGKAPKLLIYDASNLETGVPSRFSGSGSGTGFTFTISSLQPEDFATYYCQQSYSTPYTFGQGTKVEIKSGGSTITSYNVNYTKLSSSGAQVQLQQSGPGLVKSSQTLSLTCAISGDSVSSNGAAWHWIRQSPSRGLEWLGRTYYRSGWYNDYAVSVKSRITINQDTSKNQFSLQLNSVTPEDTAVYFCAREGGGGRMDVWSQGTTVTVSS	–	Kd [2]: 128 nM; Kd [3]: 128 nM
E01 human minibody (scFv-human Fc) (Fc fusion) SYELTQPPSVSVAPGETARITCGGDNIGRRHVHWYQQKPGQAPVLVIYDDSDRPSGIPDRFSGSNSGNTATLTIGRVEAGDEADYYCQVWGSSNDPHVFGTGTKLTVLSGGSTITSNNVYYTKLSSSGTQVQLQQWGAGLLKPSETLSLKCAVYGGSFSGYYWGWIRQSTGKGLEWIGEINRSGSTNYNPSLKSRVTISVDTSKNQFSLKLSSVTAADTAVYYCARGGARYYYGSGSYRSTPRPYYFDYWGQGTLVTVSS	no binding	–
D10 human minibody (scFv-human Fc) (Fc fusion) scFv-Fc: QSVVTQPPSASGSPGQTVTISCSGNSANIGGNPVNWYQQLPGTAPKLLIYSNNQRPSGVPDRFSGSKSGISASLAISGLQSEDEADYYCAAWDDSLNGVIFGGGTKLTVLSGGSTITSYNVYYTKLSSSGTQVQLVQSGAEVKKPGESLKISCKGSGYSFTSYWIGWVRQMPGKGLEWMGIIYPGDSDTRYSPSFQGQVTISADKSISTAYLQWSSLKASDTAMYYCARRHSGSYSGAFDIWGQGTMVTVSS	no binding	–
H02 human minibody (scFv-human Fc) (Fc fusion) scFv-Fc: QSVVTQPPSVSAAPGQKVTISCSGSSSNIGNNYVSWYQQLPGTAPKLLIYRDTQRPSGVPDRFSGSKSGTSASLAISGLRSEDEADYYCATWDKSLSGPVFGGGTKVTVLSGGSTITSYNVYYTKLSSSGTQVQLQQSGPGLVKPSQTLSLTCAISGDSVSSNSAAWNWIRQSPSRGLEWLGRTYYRSKWYNDYAVSVKSRIIINPDTSKNQFSLQLNSVTPEDTAVYYCARQDNNPYYGLDVWGQGTTVTVSS	no binding	–
H01 human minibody (scFv-human Fc) (Fc fusion) scFv-Fc: QPGLTQPPSVSLAPGQTARITCGGNNIGSKSVHWYQQKPGQAPVLVVYDDSDRPSGIPERFSGSNAGNTATLTISRVEAGDEADYYCQVWDSRSDQYVFGTRTKLTVLSGGSTITSYNVYYTKLSSSGAQVTLKESGPVLVKPTETLTLTCTVSGFSLSNARMGVSWIRQPPGKALEWLAHIFSNGEKSYSTSLKSRLTISKDTSKSQVVLTMTNMDPVDTATYYCARTLDYYDSSGYLVGGAFDIWGQGTMVTVSS	no binding	–
D07 human minibody (scFv-human Fc) (Fc fusion) scFv-Fc: SYELTQPPSVSVAPGETARMTCGGNNIGTKGVHWYQQKPGQAPVLVVYDDSDRPSGIPERFSGSNAGNTATLTISRVEAGDEADYYCQVWDSRSDQYVFGTRTKLTVLSGGSTITSYNVYYTKLSSSGAQVTLKESGPVLVKPTETLTLTCTVSGFSLSNARMGVSWIRQPPGKALEWLAHIFSNGEKSYSTSLKSRLTISKDTSKSQVVLTMTNMDPVDTATYYCARTLDYYDSSGYLVGGAFDIWGQGTMVTVSS	no binding	–
H01 minibody (scFv-Fc) (Fc fusion) QPGLTQPPSVSLAPGQTARITCGGNNIGSKSVHWYQQKPGQAPVLVVYDDSDRPSGIPERFSGSNAGNTATLTISRVEAGDEADYYCQVWDSRSDQYVFGTRTKLTVLSGGSTITSYNVYYTKLSSSGAQVTLKESGPVLVKPTETLTLTCTVSGFSLSNARMGVSWIRQPPGKALEWLAHIFSNGEKSYSTSLKSRLTISKDTSKSQVVLTMTNMDPVDTATYYCARTLDYYDSSGYLVGGAFDIWGQGTMVTVSS	–	Kd [2]: 281 nM; Kd [3]: 281 nM
B10 human minibody (scFv-human Fc) (Fc fusion) scFv-Fc: QSVVTQPPSVSGAPGQRVTISCTGSSSNIGSRTVNWYQQLPGTAPKLLIYANNQRPSGVPDRFSGSKSGTSASLAISGLQSEDEADYYCAAWDDSLNGYVFGTGTKLTVLSGGSTITSYNVYYTKLSSSGTQVQLQQSGPGLVKPSQTLSLTCAISGDSVSSNSATWNWIRQSPSRGLEWLGRTYYGSKWHSDYAVSVKSRITINPDTSKNQISLHLNPVTPEDTAVYYCARGRSYAFDIWDQGTMVTVSS	no binding	–
G07 human minibody (scFv-human Fc) (Fc fusion) scFv-Fc: QSVLIQPPSASGTPGQRVTISCSGSNSNFGSNSVSWYQQRPGTAPKLLIEGNNQRPSGVPERFSGSKSGTSASLAISGLQSEDEAEYSCASWDDSLNAFVFGPGTKLTVLSGGSAITSYNVYYTKLSSSGTQVQLVQSGAEVKKPGESLKISCKGSGYSFTSYWIGWVRQMPGKGLEWMGIIYPGDSDIRYSPSFQGQVTISADKSFSSAYLQWSSLKASDTAMYYCARLGATGAFDIWGQGTTVTVSS	no binding	–
R04 IgG1 (antibody, V domains shown) VH: QVQLQQSGPGLVKSSQTLSLTCAISGDSVSSNGAAWHWIRQSPSRGLEWLGRTYYRSGWYNDYAVSVKSRITINQDTSKNQFSLQLNSVTPEDTAVYFCAREGGGGRMDVWSQGTTVTVSS VL: EIVMTQSPSSLSASVGDRVTITCQASQDISNYLNWCQQKPGKAPKLLIYDASNLETGVPSRFSGSGSGTGFTFTISSLQPEDFATYYCQQSYSTPYTFGQGTKVEIK	–	Kd [2]: 190000 nM; Kd [3]: 190000 nM
E08 human minibody (scFv-human Fc) (Fc fusion) scFv-Fc: SYVLTQPPSVSVAPGKTARITCGGNNIGWKSVHWYQQKPGQAPVLVVYDDSDRPSGIPERFSGSNSGNTATLTISRVEAGDEADYYCQVWDSSSDLVVFGGGTKLTVLSGGSTITSYNVYYTKLSSSGTQVQLVQSGAEVKKPGSSVKVSCKASGGTFSSYAISWVRQAPGQGLEWMGGIIPIFGTANYAQKFQGRVTITADESTSTAYMELSSLRSEDTAVYYCARASGRWLQFWHYYGMDVWGQGTTVTVSS	binds	–
E08 rabbit minibody (scFv-rabbit Fc) (Fc fusion) scFv-Fc: SYVLTQPPSVSVAPGKTARITCGGNNIGWKSVHWYQQKPGQAPVLVVYDDSDRPSGIPERFSGSNSGNTATLTISRVEAGDEADYYCQVWDSSSDLVVFGGGTKLTVLSGGSTITSYNVYYTKLSSSGTQVQLVQSGAEVKKPGSSVKVSCKASGGTFSSYAISWVRQAPGQGLEWMGGIIPIFGTANYAQKFQGRVTITADESTSTAYMELSSLRSEDTAVYYCARASGRWLQFWHYYGMDVWGQGTTVTVSS	–	binding result [4]: binds
H05 human minibody (scFv-human Fc) (Fc fusion) scFv-Fc: SYVLTQPPSVSVAPGQTARITCGANNIGRISVHWYQQKPGQAPVLVVYDDSDRPSGIPERFSGSNFGNTATLTISRVEAGDEADYYCQVWDSYSDHVIFGGGTKLTVLSGGSTITSYNVYYTKLSSSGTQVQLVQSGAEVKKPGSSVKVSCKASGGTFSSYAISWVRQAPGQGLEWMGGIIPIFGTANYAQKFQGRVTITADESTSTAYMELSSLRSEDTAVYYCARSIFGVVIISHADGYYYGMDVWGQGTTVTVSS	no binding	–
H03 human minibody (scFv-human Fc) (Fc fusion) scFv-Fc: SYELTQPPSVSVAPGQTARITCGGNNIGSKSVHWYQQKPGQAPVLVIYYDSDRPSGIPERFSGSNSGNTATLTISRVEAGDEADYYCQVWDSSSALYVFGTRTKVTVLSGGSTITSYNVYYTKLSSSGTQVQLVESGGGLVQPGRSLRLSCAASGFTFDDYAMHWVRQAPGKGLEWVSGISWNSGSIGYADSVKGRFTISRDNAKNSLYLQVNSLRAEDTAVYYCARELIVGTTSPQTDAFDIWGQGTMVTVSS	no binding	–
R26 human minibody (scFv-human Fc) (Fc fusion) scFv-Fc: SYELTQPPSVSVAPGQTATITCGGKNIESKSVHWYQQKPGQAPVLVVSDDTDRASGIPERFSGSNSGGAATLTISRVEAGDEADYYCQVWDSPSDHYVFGPGTKLTVLSGGSTITSYNVYYTKLSSSGTQVQLVESGGGVVQPGRSLRLSCAASGFTFSSYAMHWVRQAPGKGLEWVAVISYDGSNKYYADSVKGRFTISRDKAKNTLYLQMNSLRGEDTAVYYCARELSYYDSSGYLRGDWYFDLWGRGTLVTVSS	no binding	–
